Data: patent US20230398228A1, “ERIBULIN-BASED ANTIBODY-DRUG CONJUGATES AND METHODS OF USE” (EISAI R&D MANAGEMENT CO., LTD., priority 2016, published 2023)

Legend:
[1] = SEC-HPLC aggregation analysis; type: physicochemical
Experimental: The antibody aggregation was analyzed by size-exclusion, high-performance liquid chromatography (SEC-HPLC) using an Agilent 1100. The mAb was diluted to 1 mg/mL in DPBS. The antibody (20 μL) was injected onto a TSKgel® SuperSW guard column (4.6 mm×3.5 cm, 4 μm pore size, Tosoh Bioscience), followed by a TSKgel® SuperSW3000 column (4.6 mm×30 cm, 4 μm pore size), eluted from the column with 0.1 M sodium phosphate containing 0.15 M NaCl and 0.05% NaN3, at pH 7.4, at a flow rate of 0.3 mL/min for 20 min. All data were analyzed using Agilent ChemStation software. Percent aggregation was calculated as [PAaggregate/PAtotal]*100, where PA=integrated peak area.
ADC was diluted to 1 mg/mL in DPBS. ADC (10 μL) was then injected onto an Advanced SEC 300A guard column (4.6 mm×3.5 cm, 2.7 μm pore size, Agilent), followed by a AdvancedBio 300A column (4.6 mm×30 cm, 2.7 μm pore size). ADC was eluted from the column with 0.1 M sodium phosphate containing 0.15 M NaCl and 5% IPA, pH 7.4 at a flow rate of 0.25 mL/min for 28 min. All data were analyzed using Agilent ChemStation software. Percent aggregation was calculated as [PAaggregate/PAtotal]*100, where PA=integrated peak area.

[2] = DAR analysis by LC-MS (UPLC/ESI-MS, reverse-phase LC-MS); settings: for DAR (LC-MS): reverse-phase LC-MS
Experimental: ADCs were deglycosylated using PNGase F (New England BioLabs). G7 buffer (10 μL) and PNGase F (2 μL) were added to the mAb (90 μL, 1 mg/mL in DPBS). The reaction was incubated in a Discover microwave (CEM) for 2 cycles: (1) microwave power 10 W, 37° C., 10 min, followed by a 5-min pause; (2) microwave power 2 W, 37° C., 10 min. A portion of the sample was reduced by adding DTT to a final concentration of 20 mM, followed by incubation at 60° C. for 3 min. Samples were then analyzed using a Waters Acquity Ultra Performance Liquid Chromatography (UPLC) and quadrupole time of flight (Q-Tof) Premier mass spectrometer. Samples (0.5-2 μg each) were injected onto a MassPrep™ micro desalting column at 65° C., eluted from the column with a 5 min equilibration in 95% of mobile phase A, a 10 min gradient (5-90% B), and a 10 min re-equilibration in 95% of mobile phase A, at 0.05 mL/min. Mobile phase A was 0.1% formic acid in water. Mobile phase B was 0.1% formic acid in acetonitrile. The Q-Tof mass spectrometer was run in positive ion, V-mode with detection in the range of 500-4000 m/z. The source parameters were as follows: capillary voltage, 2.25 kV (intact antibody)-2.50 kV (reduced antibody); sampling cone voltage, 65.0 V (intact antibody) or 50.0 V (reduced antibody); source temperature, 100° C.; desolvation temperature, 250° C.; desolvation gas flow, 550 L/hr. The protein peak was deconvoluted using the MassLynx® MaxEnt 1 function. Relative intensities of each unconjugated, singly-conjugated, and multiply-conjugated heavy and light chain masses were combined to calculate the overall DAR using the formula:
2[[ILC+1+2(ILC+2)+3(ILC+3)+ . . . n(ILC+n)]/ΣILCtot]+2[[IHC+1+2(IHC+2)+3(IHC+3)+ . . . n(IHC+n)]/ΣIHCtot]
where ILC+1 is mass intensity of light chain conjugated with one cytotoxin, ILC+2 is mass intensity of light chain conjugated with two cytotoxins, etc. IHC are the intensities from the corresponding conjugated heavy chains, and ΣILCtot and ΣIHCtot are the combined intensities of all unconjugated and conjugated light chains and heavy chains, respectively.
DAR was also analyzed using an LC-MS method with a Waters Alliance HPLC with SQD/PDA detection. Samples were injected onto a Proteomix RP-1000 column ([…], 1000A, 4.6 mm×15 cm, Sepax) at 65° C., and eluted with a 3 min equilibration in 25% B, a 27 min linear gradient from 25%-55% B, a 5 min hold at 55% B, a 1 min change to 90% B, a 5 min hold at 90% B, a 1 min change back to 25% B, and a 5 min reequilibration at 25% B. Mobile phase A was 0.1% TFA in water, and mobile phase B was 0.1% TFA in acetonitrile. The elute was then split (10:1) into PDA and SQD detectors. The SQD detector was set up as ES positive, capillary voltage at 3.2 kV, cone voltage at 40 V, extractor at 3 V, and RF lens at 0.2 V, source temperature at 150° C., and desolvation temperature at 250° C. Mass data was acquired at 200-2000 m/z for 40 min, continuum mode, scan time 1 second. Data was analyzed and deconvoluted offline using MassLynx and MaxEnt1. DAR was calculated using the formula:
2[[AUCLC+1+2(AUCLC+2)+3(AUCLC+3)+ . . . n(AUCLC+n)]/[…]]+2[[AUCHC+1+2(AUCHC+2)+3(AUCHC+3)+ . . . n(AUCHC+n)]/ΣAUCHCtot]
where AUCLC+1 is the area under the curve of the light chain peak conjugated with one cytotoxin, AUCLC+2 is the area under the curve of the light chain peak conjugated with two cytotoxins, etc. AUCHC is the area under the curve of the corresponding heavy chains, and ΣAUCLCtot and ΣAUCHCtot are the combined area under the curve of all unconjugated and conjugated light chains and heavy chains, respectively.

human mesothelin = human mesothelin (Homo sapiens, UniProt Q13421); assay: ELISA, mesothelin; type: binding; settings: MORAb-009 and its ADCs; for EC50: read-out: Antigen Binding ELISA, EC50
Experimental: Recombinant human mesothelin was diluted to 1 μg/mL in coating buffer (50 mM carbonate-bicarbonate buffer, pH 9.6), and coated onto 96-well Maxisorp black plates (Thermo, Cat No. 43711, 100 μL/well) at 4° C., overnight. Coating solution was discarded and the plates were washed three times using 1×PBS with 0.05% Tween-20 (PBST) buffer. Plates were blocked in 300 μL blocking buffer (1% BSA in PBST) at room temperature for 2 hours on an orbital shaker. […] Blocking buffer was discarded and 100 μL/well of diluted antibody was added to the plates. Plates were incubated at room temperature for 2 hours on an orbital shaker. Antibody solution was discarded and plates were washed three times using PBST. 100 μL/well of goat-anti-human IgG (H+L)-HRP (1:10,000 dilution in blocking buffer) solution was added to the plates, and plates were incubated at room temperature for 1 hour on an orbital shaker. Secondary antibody solution was discarded and plates were washed three times using PBST. 100 μL/well of QuantaBlu fluorogenic peroxidase substrate working solution (Thermo, Cat No. 15169) was added to the plates, and plates were incubated at room temperature for 30 min. Fluorescence was read at excitation 325 nm/emission 420 nm using a SpectraMax M5 (Molecular Devices). Data was analyzed using SoftMaxPro 5.4.2 software with 4-parameter fitting.

IGROV1 cells = assay: Crystal Violet cytotoxicity assay (Example 4), IGROV1; type: cell-based, human; settings: mean of replicate experiments, read-out: Cytotoxicity IC50 (nM), IGROV1 (FR^hi, MSLN^neg)
Experimental: (§1) Test reagents were serial diluted 1:3 in 2 mL deep-well dilution plates, starting at 200 nM (10 dilutions total). […] Medium was then discarded. […] Plates were read at 570 nm. Data was analyzed using GraphPad Prism 6.

NCI-H2110 cells = assay: Crystal Violet cytotoxicity assay (Example 4), NCI-H2110; type: cell-based, human; settings: mean of replicate experiments, read-out: Cytotoxicity IC50 (nM), NCI-H2110 (FR^med, MSLN^med)
Experimental: as §1

A431 cells = assay: Crystal Violet cytotoxicity assay (Example 4), A431 (parental); type: cell-based, human; settings: mean of replicate experiments, read-out: Cytotoxicity IC50 (nM), A431 (FR^neg, MSLN^neg)
Experimental: Test reagents were serial diluted 1:3 in 2 mL deep-well dilution plates, starting at 200 nM (10 dilutions total). […] Medium was then discarded. […] Plates were read at 570 nm. Data was analyzed using GraphPad Prism 6. […]
MAL-PEG2-Val-Cit-PAB-eribulin (ER-001159569) was conjugated to eight different anti-human mesothelin antibodies (Table 1). Binding affinities of the parental antibodies were determined by BIAcore analysis, as described above in section 1.6.1. Aggregation levels for all anti-human mesothelin ADCs were determined by SEC-HPLC and the DAR was analyzed using HIC-HPLC. In vitro potency was evaluated using a Crystal Violet cell-based cytotoxicity assay in A3 (A431 stabily transfected with human mesothelin (MSLN), MSLN^hi), OVCAR3 (human ovarian, MSLN^hi), HEC-251 (human endometroid, MSLN^med), H226 (human lung squamous cell mesothelioma, MSLN^lo), and A431 parental (MSLN^neg) cells.

[3] = tested on: LXFA-737 NSCLC patient-derived xenograft; assay: NSCLC PDx model LXFA-737; type: in vivo, mouse; settings: for Tumor Volume / Tumor Growth Inhibition: 5 mg/kg single dose i.v.; for Tumor Growth Inhibition: vehicle = 100
Source text: Tumor implantation: NSCLC tumor fragments were obtained from LXFA-737 tumor xenografts serially passaged in nude mice. After removal from donor mice, tumors were cut into fragments (3-4 mm edge length) and placed in phosphate-buffered saline (PBS) containing 10% penicillin/streptomycin. Recipient animals were anesthetized by inhalation of isoflurane and received unilateral or bilateral tumor implants subcutaneously in the flank. Tumor xenografts were implanted with one or two tumors per mouse at a take rate <65%. In the case of a bilateral take, one of these tumors was explanted prior to randomization. Animals and tumor implants were monitored daily until solid tumor growth was detectable in a sufficient number of animals. At randomization, the volume of growing tumors was determined. […] Animals not used for experiments were euthanized.
Body weight was measured prior to dose on each dosing day, and two times per week during the study. At the end of the study, the terminal body weight was measured and recorded.

[4] = tested on: human BM-MSCs co-cultured with MKN-74 cells; assay: 3D co-culture system (rStomach, zPredicta), MSC differentiation by flow cytometry; type: cell-based; settings: 7 days treatment, MORAb-202 10 nM, MORAb-003 10 nM, eribulin […] and 0.2 nM (Table 41)
Experimental: All mesenchymal stem cell (MSC)-containing 3D co-culture experiments were conducted in zPredicta, using organ-specific 3D extracellular matrix systems such as rStomach™. Bone marrow mesenchymal stem cells (BM-MSCs) in rStomach™ were co-cultured with the Nuc Red Light MKN-74 gastric cancer cell line in quadruplicate in 48-well format for 12 days. […] Prior to culture, BM-MSCs were evaluated for target antigen expression and for markers of MSC differentiation (Table 40) by flow cytometry.
Controls included untreated and vehicle-treated (PBS and DMSO) cultures. MSC differentiation was monitored by light microscopy. Once visible differentiation was observed, samples were harvested for staining and flow cytometry analysis.
Bone marrow mesenchymal stem cells (BM-MSCs) in rStomach™ (zPredicta) were co-cultured with the MKN-74 gastric cancer cell line for 12 days. […] Once visible MSC differentiation was observed by light microscopy, samples were harvested for staining and flow cytometry analysis.

Row | Molecule | SEC-HPLC Analysis % Aggr. [1] [%] | SEC-HPLC Analysis % Frag. [1] [%] | SEC-HPLC Analysis % Monomer [1] [%] | DAR (LC-MS) [2] | Antigen Binding ELISA, EC50 (human mesothelin) [µg/mL] | EC50 (human mesothelin) [nM] | IC50 (IGROV1 cells) [nM] | IC50 (NCI-H2110 cells) [nM] | IC50 (A431 cells) [nM] | Aggregation (%) ([1]; MORAb-003 ADCs, SEC-HPLC) | DAR ([2]; MORAb-003 ADCs, DAR by LC-MS) | Tumor Volume ([3]; Day 21, n = 6) [mm^3] | Tumor Growth Inhibition ([3]; Day 21, n = 6) | Tumor Volume ([3]; Day 32, n = 6) [mm^3] | Tumor Growth Inhibition ([3]; Day 32, n = 6) | anti-tumor activity, in words ([3]; 5 mg/kg single i.v. dose) | Percentage of live cells, Pericytes ([4]; PBS 14.6%) [%] | Percentage of live cells, Adipocytes ([4]; PBS […]) [%] | Percentage of live cells, MSCs ([4]; PBS […]) [%]
1 | MORAb009-DBCO-PEG2 eribulin | 1.15 | 0 | 98.85 | 3.07 | 0.0233 | 0.16 | 75.7 | 85.7 | > 100 | – | – | – | – | – | – | – | – | – | –
2 | MORAb009-DBCO-PEG4 eribulin | 1.12 | 0 | 98.88 | 2.8 | 0.0452 | 0.3 | 61.5 | 39.3 | > 100 | – | – | – | – | – | – | – | – | – | –
3 | COc1cc2cc(c1Cl)N(C)C(=O)C[C@H](OC(=O)C(C)N(C)C(=O)CCSC1CC(=O)N(CC3CCC(C(=O)ON4C(=O)CCC4=O)CC3)C1=O)[C@@H]1O[C@H]1[C@H](C)[C@@H]1C[C@@](O)(NC(=O)O1)[C@H](OC)/C=C/C=C(\C)C2 (stereo partly drawn) [M-DM1] | – | – | – | – | – | – | – | – | – | 1.8 | 3.6 | – | – | – | – | – | – | – | –
4 | MORAb009-DBCO-PEG4 VCP eribulin | 0.22 | 0 | 99.78 | 2.91 | 0.0337 | 0.22 | 13 | 31.4 | > 100 | – | – | – | – | – | – | – | – | – | –
5 | MORAb009 | 0 | 0 | 100 | – | 0.0426 | 0.28 | – | – | – | – | – | – | – | – | – | – | – | – | –
6 | MORAb-003: humanized anti-human folate receptor alpha antibody (USAN name: farletuzumab) | – | – | – | – | – | – | – | – | – | – | – | 860.7 | (85.7) % | 1572.1 | (100.7) % | did not demonstrate significant anti-tumor activity | 24.0 | 0.69 | 37.1
